Experiments:
[1] = target: T1, D domain of human Tenascin-C (human, UniProt P24821 1622-1711, limits assumed); assay: Biacore (SPR), scFv over CM5 chip coated with human tenascin-C D domain
T1 construct: domain: D domain; Coated on a CM5 chip; also called domain D of human Tenascin-C; human tenascin-C D domain
T1 sequence (looked up): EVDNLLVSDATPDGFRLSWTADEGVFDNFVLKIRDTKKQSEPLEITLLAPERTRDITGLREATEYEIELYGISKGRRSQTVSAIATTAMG
Experimental: CPR01 was analysed for antigen binding by Biacore using a CM5 chip coated with the human tenascin-C D domain. The flow rate for the Biacore analysis was set at 10 μL/min.

[2] = target: T2, BCD domains of murine tenascin-C (murine, UniProt Q80YX1 1349-1620, limits assumed); assay: Biacore (SPR), scFv on BCD domains of murine tenascin-C
T2 construct: domain: BCD domains; Coated on a CM5 chip; also called domain BCD of murine Tenascin-C
T2 sequence (looked up): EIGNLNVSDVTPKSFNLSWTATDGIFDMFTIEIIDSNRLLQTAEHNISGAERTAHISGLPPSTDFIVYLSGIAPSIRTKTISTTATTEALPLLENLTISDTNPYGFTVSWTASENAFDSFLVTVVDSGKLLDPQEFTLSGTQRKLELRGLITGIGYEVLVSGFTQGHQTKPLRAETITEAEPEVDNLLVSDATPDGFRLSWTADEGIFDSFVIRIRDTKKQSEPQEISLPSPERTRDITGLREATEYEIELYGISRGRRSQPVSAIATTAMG

human MMP3 = human MMP3 (human, UniProt P08254 100-272); assay: Biacore (SPR), scFv; set-up not described
murine MMP3 = murine MMP3 (murine, UniProt P28862 100-272); assay: Biacore (SPR), scFv; set-up not described
Chain of murine MMP3 (P28862 100-272): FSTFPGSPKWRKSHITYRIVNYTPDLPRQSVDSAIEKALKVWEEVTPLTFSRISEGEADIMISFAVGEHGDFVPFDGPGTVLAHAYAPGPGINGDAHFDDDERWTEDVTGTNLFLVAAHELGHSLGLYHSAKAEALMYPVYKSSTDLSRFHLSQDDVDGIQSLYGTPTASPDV

Chain of human MMP3 (P08254 100-272): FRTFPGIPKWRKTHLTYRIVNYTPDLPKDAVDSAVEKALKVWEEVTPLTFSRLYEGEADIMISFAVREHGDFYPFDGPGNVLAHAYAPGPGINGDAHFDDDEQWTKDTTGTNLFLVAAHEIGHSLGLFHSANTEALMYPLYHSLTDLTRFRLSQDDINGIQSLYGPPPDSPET

B1: scFv(CPR01) (scFv)
scFv: EVQLLESGGGLVQPGGSLRLSCAASGFTFSSYAMSWVRQAPGKGLEWVSAIKARGGLTYYADSVKGRFTISRDNSKNTLYLQMNSLRAEDTAVYYCAKGGAPFDYWGQGTLVTVSSGGGGSGGGGSGGGGSSELTQDPAVSVALGQTVRITCQGDSLRSYYASWYQQKPGQAPVLVIYGKNNRPSGIPDRFSGSSSGNTASLTITGAQAEDEADYYCNSSPLNRLAVVFGGGTKLTVLG
notes: Expressed in CHO.S cells as scFv
- Kd [1]: 70 nM
- koff [1]: 0.011 s⁻¹
- kon [1]: 151000 M⁻¹ s⁻¹
- Kd [2]: 29 nM
- koff [2]: 0.007 s⁻¹
- kon [2]: 240000 M⁻¹ s⁻¹

B2: scFv(CH01) (scFv)
scFv: EVQLLESGGGLVQPGGSLRLSCAASGFTFSPYAMSWVRQAPGKGLEWVSAITGQGGVTYYADSVKGRFTISRDNSKNTLYLQMNSLRAEDTAVYYCAKISSFHFDYWGQGTLVTVSSGGGGSGGGGSGGGGEIVLTQSPGTLSLSPGERATLSCRASQSVSSHHLAWYQQKPGQAPRLLIYDASSRATGIPDRFSGSGSGTDFTLTISRLEPEDFAVYYCQQPRGAPTTFGQGTKVEIK
notes: First disclosed in PCT/EP2015/067309; also called anti-MMP3 antibody CH01
- Kd (human MMP3): 28 nM
- koff (human MMP3): 0.0047 s⁻¹
- kon (human MMP3): 170000 M⁻¹ s⁻¹
- Kd (murine MMP3): 29 nM
- koff (murine MMP3): 0.0025 s⁻¹
- kon (murine MMP3): 80000 M⁻¹ s⁻¹

Reference: US20190062414A1 (PHILOGEN S P A, published 2019)
